Test results taken from patent US20180346912.

Key:
IFN-γ (human) [1] = target: T1, IFN-γ (human) (UniProt P01579); assay: SPR; details: biotinylated DNA on SA chip, 1x PBS + 50 mM NaCl, 0.05% NP-40, 25 C
T1 sequence: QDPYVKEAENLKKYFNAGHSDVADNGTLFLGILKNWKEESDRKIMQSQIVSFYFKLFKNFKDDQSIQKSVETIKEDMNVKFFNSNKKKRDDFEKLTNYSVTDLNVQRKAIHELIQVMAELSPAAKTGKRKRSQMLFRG

IFN-γ (human) [2] = target: T1, IFN-γ (human); assay: competition; details: PBS, 0.005% NP-40, 37 C
[3] = system: T2, VEGF165 (human), P15692-4; assay: competition; details: n = Ds unnatural base in DNA, phosphate buffer pH 7.4, 0.005% NP-40, 37 C
T2 sequence: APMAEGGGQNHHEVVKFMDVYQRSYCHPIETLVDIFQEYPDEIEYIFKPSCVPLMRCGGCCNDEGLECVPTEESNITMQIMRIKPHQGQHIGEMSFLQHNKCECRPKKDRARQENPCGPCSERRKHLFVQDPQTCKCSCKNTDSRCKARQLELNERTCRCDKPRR

[4] = n = Ds unnatural base in DNA, EMSA competition vs 32P-Aptamer 49 (=1.00)
[5] = EMSA competition vs 32P-Aptamer 47 (=1.00)

CCCGCCCGGGTCCGCGAAGCGGTAGGTNTGGGCTAGGCNGCTGGCGGGCGCGAAGCG [Aptamer 57GCmh (IFN-γ)]
Kd (IFN-γ (human) [1]; n = Ds unnatural base in DNA): 0.033 nM
binding signal (IFN-γ (human) [2]; [4]): 1.53

CCCGCCCGGGTCGCCTANTGGCGTAGGTNTGGGCTAGGCNGCTGGCGGGCGCGAAGCG [Aptamer 58GC (IFN-γ)]
binding signal (IFN-γ (human) [2]; [4]): 0.24

CGGTAAACTGCGTCCGAAGGGGCNTGCAGTGANCCCGAATGGGTCCG [Aptamer 47 (VEGF)]
binding signal ([3]; reference): 1

GCGGTAAACTGCGTCCGAAGGGGCNTGCAGTGANCCCGAATGGGTCCGC [Aptamer 49 (VEGF)]
binding signal [3, 5]: 1.53

GCGGTAAACTGCGTCCGAAGGGGCNTGCAGTGANCCCGAATGGGTCCGCCGCGAAGCG [Aptamer 58mh (VEGF)]
binding signal [3, 5]: 1.58

GCGGTAAGCCGCGTCCGAAGGGGCNTGCGGCGANCCCGAATGGGTCCGC [Aptamer 49GC (VEGF)]
binding signal [3, 5]: 1.5

GCGGTAAGCCGCGTCCGAAGGGGCNTGCGGCGANCCCGAATGGGTCCGCCGCGAAGCG [Aptamer 58GCmh (VEGF)]
binding signal [3, 5]: 1.59

TCCACTCGGGTCATTTANTAATGTAGGTNTGGGCTAGGCNGCTAGTGGA [Aptamer 49 (IFN-γ)]
Kd (IFN-γ (human) [1]; n = Ds, 7-(2-thienyl)-3H-imidazo[4,5-b]pyridin-3-yl unnatural base in DNA): 0.046 nM
binding signal (IFN-γ (human) [2]; n = Ds, 7-(2-thienyl)-3H-imidazo[4,5-b]pyridin-3-yl unnatural base in DNA, reference, EMSA competition): 1

TCCACTCGGGTCATTTANTAATGTAGGTNTGGGCTAGGCNGCTAGTGGACGCGAAGCG [Aptamer 58 (IFN-γ)]
Kd (IFN-γ (human) [1]; n = Ds unnatural base in DNA): 0.038 nM
binding signal (IFN-γ (human) [2]; [4]): 1.29

TCCACTCGGGTCCGCGAAGCGGTAGGTNTGGGCTAGGCNGCTAGTGGACGCGAAGCG [Aptamer 57mh (IFN-γ)]
binding signal (IFN-γ (human) [2]; [4]): 1.4
